Data from patent publication US20220089776A1 (OREGON HEALTH AND SCIENCE UNIVERSITY, published 2022).

T1: human blood protein factor XII (FXII) (human, UniProt P00748 20-615)
T1 construct: mature; Single-chain zymogen as it circulates in plasma; also called human FXII; plasma-derived FXII
T1 sequence (looked up): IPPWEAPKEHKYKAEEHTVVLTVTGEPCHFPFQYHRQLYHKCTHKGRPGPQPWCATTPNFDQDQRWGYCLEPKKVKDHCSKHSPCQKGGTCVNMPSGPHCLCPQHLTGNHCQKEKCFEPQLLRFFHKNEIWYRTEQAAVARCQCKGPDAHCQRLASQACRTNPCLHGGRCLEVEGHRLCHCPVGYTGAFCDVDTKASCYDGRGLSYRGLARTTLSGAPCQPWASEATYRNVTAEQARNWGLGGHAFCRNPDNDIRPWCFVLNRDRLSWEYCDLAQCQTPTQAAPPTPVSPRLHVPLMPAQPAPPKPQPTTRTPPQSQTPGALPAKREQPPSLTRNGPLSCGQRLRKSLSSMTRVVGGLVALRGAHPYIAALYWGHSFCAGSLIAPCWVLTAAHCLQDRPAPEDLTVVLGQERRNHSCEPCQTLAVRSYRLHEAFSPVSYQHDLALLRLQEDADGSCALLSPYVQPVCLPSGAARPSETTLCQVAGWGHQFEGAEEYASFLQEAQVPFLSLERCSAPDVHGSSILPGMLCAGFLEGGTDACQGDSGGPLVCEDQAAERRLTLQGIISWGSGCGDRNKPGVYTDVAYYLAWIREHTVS


What was measured:
[1] = target: T1, human blood protein factor XII (FXII); test: BLI (Octet RED96), antibody on anti-human Fc biosensors, antigen in solution, 1:1 fit
Experimental: Multi-concentration kinetic experiments were performed on the Octet RED96 system (ForteBio). Anti-human Fc biosensors (ForteBio) were hydrated in sample diluent (0.1% BSA in PBS and 0.02% Tween 20) and preconditioned in pH 1.9 Glycine. Antigen was diluted by a 7-point, 3-fold serial dilution starting at 200 nM with sample diluent. Antibodies were diluted to 1μg/ml with sample diluent and then immobilized onto anti-human Fc biosensors. After baselines were established for 30 seconds in sample diluent, the biosensors were moved to wells containing serially diluted antigen to measure the association and dissociation. […] The binding affinities were characterized by fitting the kinetic sensorgrams to a monovalent binding model (1:1 binding).

[2] = target: T1, human blood protein factor XII (FXII); test: ELISA, human FXII coated at 1 µg/mL, goat anti-human IgG-HRP detection
Experimental: One μg/mL of human FXII (Enzyme Research Labs, #HFXII 1212) was coated on the ELISA plate at 4° C. overnight. The coated plate was blocked with 2% BSA in phosphate buffered saline (PBS) at room temperature for one hour and then washed three times with PBS. All antibodies to be tested (PP13892-PP13901 or human Fc isotype control) were diluted with sample diluent in an 11 point, 5-fold, serial dilution starting at 10 μg/mL. Each sample was run in duplicate. Each concentration was incubated on the coated plate for one hour at room temperature and then washed three times with PBS. Bound antibody was detected with goat-anti-human IgG-HRP and washed six times with PBS. TMB substrate was added to each well and the reaction was stopped with 1M HCl. Absorbance was read at 450 nm.
EC₅₀ for the concentration response curve was calculated by plotting the OD measured at 450 nm against the logarithm of antibody concentration and the EC₅₀ was calculated by nonlinear regression analysis.

Binder | Kd [1] | koff [1] | kon [1] | EC50 [2]
Chimera (chimeric parental antibody) PP13892 (antibody, human IgG4, V domains shown, Variable regions of murine AB053 on the same human IgG4 (S241P hinge modified) backbone as the humanized antibodies; also called H7879 + L7879) VH: DVQLQESGPDLVKPSQSLSLTCTVTGYSITSGYSWHWIRQFPGNNLEWMGYIQYSGNTNSNPSLKSRISITRDTSKNQFFLHLNSVTTEDTATYYCARWGSFDYWGQGTTLTVSS VL: QIVLTQSPAIMSASPGEKVTMTCSASSSVNYMHWYQQKSGTSPKRWIYDTSKLASGVPARFSGSGSGTSYSLTISSMEAGDAATYYCQQWSGNPPTFGGGTILEIK | 0.24 nM | 0.00011 s⁻¹ | 460000 M⁻¹ s⁻¹ | 9.04 ng/mL
humanized 5C12 antibody HC1 + LC1 (PP13893) (antibody, human IgG4 S228P, kappa, V domains shown, Human IgG4 (S241P hinge modified), expressed in HEK293; also called AB054; h5C12) VH: QVQLQESGPGLVKPSQTLSLTCTVSGYSITSGYSWHWIRQHPGKGLEWIGYIQYSGNTNSNPSLKSRVTISRDTSKNQFSLKLSSVTAADTAVYYCARWGSFDYWGQGTLVTVSS VL: EIVLTQSPATLSLSPGERATLSCRASSSVNYLHWYQQKPGQAPRRLIYDTSKLATGIPARFSGSGSGTDYTLTISSLEPEDFAVYYCQQWSGNPPTFGGGTKVEIKR | 0.3 nM | 0.00016 s⁻¹ | 530000 M⁻¹ s⁻¹ | 9.12 ng/mL
humanized 5C12 antibody HC1 + LC2 (PP13894) (antibody, human IgG4 S228P, kappa, V domains shown, Human IgG4 (S241P hinge modified), expressed in HEK293; also called H7880 + L7881) VH: QVQLQESGPGLVKPSQTLSLTCTVSGYSITSGYSWHWIRQHPGKGLEWIGYIQYSGNTNSNPSLKSRVTISRDTSKNQFSLKLSSVTAADTAVYYCARWGSFDYWGQGTLVTVSS VL: EIVLTQSPATLSLSPGERATLSCRASSSVNYLHWYQQKPGQAPKRWIYDTSKLATGIPARFSGSGSGTDYTLTISSLEPEDFAVYYCQQWSGNPPTFGGGTKVEIKR | 0.3 nM | 0.00016 s⁻¹ | 530000 M⁻¹ s⁻¹ | 8.22 ng/mL
humanized 5C12 antibody HC1 + LC3 (PP13895) (antibody, human IgG4 S228P, kappa, V domains shown, Human IgG4 (S241P hinge modified), expressed in HEK293; also called H7880 + L7882) VH: QVQLQESGPGLVKPSQTLSLTCTVSGYSITSGYSWHWIRQHPGKGLEWIGYIQYSGNTNSNPSLKSRVTISRDTSKNQFSLKLSSVTAADTAVYYCARWGSFDYWGQGTLVTVSS VL: DIVLTQTPATLSLSPGERATLSCRASSSVNYLHWYQQKPGQAPKRLIYDTSKLATGIPARFSGSGSGTDYTLTISSLEPEDFAVYYCQQWSGNPPTFGQGTRLEIKR | 0.41 nM | 0.0002 s⁻¹ | 500000 M⁻¹ s⁻¹ | 9.02 ng/mL
humanized 5C12 antibody HC2 + LC1 (PP13896) (antibody, human IgG4 S228P, kappa, V domains shown, Human IgG4 (S241P hinge modified), expressed in HEK293; also called H7881 + L7880) VH: DVQLQESGPGLVKPSQTLSLTCTVTGYSITSGYSWHWIRQHPGKGLEWMGYIQYSGNTNSNPSLKSRVTISRDTSKNQFSLKLSSVTAADTAVYYCARWGSFDYWGQGTLVTVSS VL: EIVLTQSPATLSLSPGERATLSCRASSSVNYLHWYQQKPGQAPRRLIYDTSKLATGIPARFSGSGSGTDYTLTISSLEPEDFAVYYCQQWSGNPPTFGGGTKVEIKR | 0.44 nM | 0.00022 s⁻¹ | 500000 M⁻¹ s⁻¹ | 8.24 ng/mL
humanized 5C12 antibody HC3 + LC1 (PP13899) (antibody, human IgG4 S228P, kappa, V domains shown, Human IgG4 (S241P hinge modified), expressed in HEK293; also called H7882 + L7880) VH: DVQLQESGPGLVKPSETLSLTCTVSGYSITSGYSWHWIRQPPGKGLEWIGYIQYSGNTNSNPSLKSRVTISRDTSKNQFSLRLSSVTAADTAVYYCARWGSFDYWGQGTMVTVSS VL: EIVLTQSPATLSLSPGERATLSCRASSSVNYLHWYQQKPGQAPRRLIYDTSKLATGIPARFSGSGSGTDYTLTISSLEPEDFAVYYCQQWSGNPPTFGGGTKVEIKR | 0.27 nM | 0.00015 s⁻¹ | 560000 M⁻¹ s⁻¹ | 8.48 ng/mL
humanized 5C12 antibody HC2 + LC3 (PP13898) (antibody, human IgG4 S228P, kappa, V domains shown, Human IgG4 (S241P hinge modified), expressed in HEK293; also called H7881 + L7882) VH: DVQLQESGPGLVKPSQTLSLTCTVTGYSITSGYSWHWIRQHPGKGLEWMGYIQYSGNTNSNPSLKSRVTISRDTSKNQFSLKLSSVTAADTAVYYCARWGSFDYWGQGTLVTVSS VL: DIVLTQTPATLSLSPGERATLSCRASSSVNYLHWYQQKPGQAPKRLIYDTSKLATGIPARFSGSGSGTDYTLTISSLEPEDFAVYYCQQWSGNPPTFGQGTRLEIKR | 0.31 nM | 0.00016 s⁻¹ | 500000 M⁻¹ s⁻¹ | 8.09 ng/mL
humanized 5C12 antibody HC3 + LC3 (PP13901) (antibody, human IgG4 S228P, kappa, V domains shown, Human IgG4 (S241P hinge modified), expressed in HEK293; also called H7882 + L7882) VH: DVQLQESGPGLVKPSETLSLTCTVSGYSITSGYSWHWIRQPPGKGLEWIGYIQYSGNTNSNPSLKSRVTISRDTSKNQFSLRLSSVTAADTAVYYCARWGSFDYWGQGTMVTVSS VL: DIVLTQTPATLSLSPGERATLSCRASSSVNYLHWYQQKPGQAPKRLIYDTSKLATGIPARFSGSGSGTDYTLTISSLEPEDFAVYYCQQWSGNPPTFGQGTRLEIKR | 0.35 nM | 0.00018 s⁻¹ | 530000 M⁻¹ s⁻¹ | 9.47 ng/mL
humanized 5C12 antibody HC2 + LC2 (PP13897) (antibody, human IgG4 S228P, kappa, V domains shown, Human IgG4 (S241P hinge modified), expressed in HEK293; also called H7881 + L7881) VH: DVQLQESGPGLVKPSQTLSLTCTVTGYSITSGYSWHWIRQHPGKGLEWMGYIQYSGNTNSNPSLKSRVTISRDTSKNQFSLKLSSVTAADTAVYYCARWGSFDYWGQGTLVTVSS VL: EIVLTQSPATLSLSPGERATLSCRASSSVNYLHWYQQKPGQAPKRWIYDTSKLATGIPARFSGSGSGTDYTLTISSLEPEDFAVYYCQQWSGNPPTFGGGTKVEIKR | 0.15 nM | 9e-05 s⁻¹ | 620000 M⁻¹ s⁻¹ | 8.78 ng/mL
humanized 5C12 antibody HC3 + LC2 (PP13900) (antibody, human IgG4 S228P, kappa, V domains shown, Human IgG4 (S241P hinge modified), expressed in HEK293; also called H7882 + L7881) VH: DVQLQESGPGLVKPSETLSLTCTVSGYSITSGYSWHWIRQPPGKGLEWIGYIQYSGNTNSNPSLKSRVTISRDTSKNQFSLRLSSVTAADTAVYYCARWGSFDYWGQGTMVTVSS VL: EIVLTQSPATLSLSPGERATLSCRASSSVNYLHWYQQKPGQAPKRWIYDTSKLATGIPARFSGSGSGTDYTLTISSLEPEDFAVYYCQQWSGNPPTFGGGTKVEIKR | 0.32 nM | 0.00019 s⁻¹ | 580000 M⁻¹ s⁻¹ | 7.69 ng/mL
